From patent publication US20230312689A1 (NATIONAL UNIVERSITY CORPORATION KUMAMOTO UNIVERSITY, published 2023)

B1: CTMA9-105 (antibody, V domains shown)
VH: EVQLVESGGGLIQPGGSLRLSCAASGITVSSNYMSWVRQAPGKGLEWVSLIYSGGSTYYADSVKGRFTISRDNSKNTLYLQMNSLRAEDTAVYYCARDLEEAGGMDVWGQGTTVTVSS
VL: DIVMTQSPGTLSLSPGERATLSCRASQSVPSIYLAWYQQRPGQAPRLLIYGASSRATGIPDRFSGSGSGTDFTLTISRLEPEDFAVYYCQQYGSSPGTFGQGTKVEIK
B2: CSSA10-121 (antibody, V domains shown)
VH: EVQLVESGGGLIQPGGSLRLSCAASGLTVSRNYMSWVRQAPGRGLEWVSLIYSGGSTYYADSVKGRFTISRDSSKNTLYLQMNSLRAEDTAVYYCARPIVGARAGMDVWGQGTTVTVSS
VL: DIRMTQSPSSLSASVGDRVTITCQASQDISNYLNWYQQKPGKAPKLLIYDASNLETGVPSRFSGSGSGTDFTFTISSLQPEDIATYYCQQYDNLPVTFGQGTRLEIK

How the values were obtained:
[1] = target: spike protein of SARS-CoV-2 mutant strain B.1.351 (SARS-CoV-2); assay: cell-based or functional assay
[2] = target: SARS-CoV-2 spike protein, European type SD614G (SARS-CoV-2, UniProt P0DTC2 14-1273); assay: cell-based or functional assay

Row | Binder | IC50, pseudovirus neutralization, 293FT/DSP/ACE2/TMPRSS2 cells [1] | neutralizing activity (IC50 value), pseudovirus, 293F/ACE2/TMPRSS2 cells [2] | neutralizing activity (IC50 value), pseudovirus, Caco-2 cells [2] | neutralizing activity (IC50 value), pseudovirus, Calu-3 cells [2]
1 | B1 | 0.021 µg/mL | 0.0035 µg/mL | 0.92 ng/mL | 0.0019 µg/mL
2 | B2 | – | 0.018 µg/mL | 15 ng/mL | 0.12 µg/mL
